The results in this text go back to IntAct's records for PubMed 15078334.

The labels stand for the following.
B1: Guanine nucleotide-binding protein alpha-1 subunit (Oryza sativa subsp. japonica (Rice)), Q0DJ33 (parent)
chain: MGSSCSRSHSLSEAETTKNAKSADIDRRILQETKAEQHIHKLLLLGAGESGKSTIFKQIKLLFQTGFDEAELRSYTSVIHANVYQTIKILYEGAKELSQVESDSSKYVISPDNQEIGEKLSDIDGRLDYPLLNKELVLDVKRLWQDPAIQETYLRGSILQLPDCAQYFMENLDRLAEAGYVPTKEDVLYARVRTNGVVQIQFSPVGENKRGGEVYRLYDVGGQRNERRKWIHLFEGVNAVIFCAAISEYDQMLFEDETKNRMMETKELFDWVLKQRCFEKTSFILFLNKFDIFEKKIQKVPLSVCEWFKDYQPIAPGKQEVEHAYEFVKKKFEELYFQSSKPDRVDRVFKIYRTTALDQKLVKKTFKLIDESMRRSREGT
partner: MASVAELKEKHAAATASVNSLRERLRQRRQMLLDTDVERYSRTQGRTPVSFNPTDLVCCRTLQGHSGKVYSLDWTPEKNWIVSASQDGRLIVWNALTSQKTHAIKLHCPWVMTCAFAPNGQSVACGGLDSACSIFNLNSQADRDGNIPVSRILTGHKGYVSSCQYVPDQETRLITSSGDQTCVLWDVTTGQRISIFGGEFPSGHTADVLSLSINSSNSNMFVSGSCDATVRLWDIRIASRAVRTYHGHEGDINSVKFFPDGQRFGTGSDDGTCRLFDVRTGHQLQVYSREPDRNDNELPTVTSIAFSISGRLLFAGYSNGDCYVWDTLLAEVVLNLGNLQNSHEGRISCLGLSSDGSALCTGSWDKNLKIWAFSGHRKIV

Variants of B1 are the subject of the assay. Conditions: with gbb_orysj RGB1, Q40687.
Take MGSSCSRSHSLSEAETTKNAKSADIDRRILQETKAEQHIHKLLLLGAGESGKSTIFKQIKLLFQTGFDEAELRSYTSVIHANVYQTIKILYEGAKELSQVESDSSKYVISPDNQEIGEKLSDIDGRLDYPLLNKELVLDVKRLWQDPAIQETYLRGSILQLPDCAQYFMENLDRLAEAGYVPTKEDVLYARVRTNGVVQIQFSPVGENKRGGEVYRLYDVGGLRNERRKWIHLFEGVNAVIFCAAISEYDQMLFEDETKNRMMETKELFDWVLKQRCFEKTSFILFLNKFDIFEKKIQKVPLSVCEWFKDYQPIAPGKQEVEHAYEFVKKKFEELYFQSSKPDRVDRVFKIYRTTALDQKLVKKTFKLIDESMRRSREGT [Q223L]: the “effect of a mutation on the interaction” value is recorded as “disrupting interaction”.
